Results reported in patent US20200123260A1 (Pfizer, published 2020).

Legend:
[1] = target: human TrkB (open reading frame from nm_006180) on HEK293 cells (human, UniProt Q16620 32-822); experiment: cell-based or functional assay
[2] = target: hTrkB-a isoform fused to a small peptide epitope, in U2OS cells (Discoverx Pathhunter) (human, UniProt Q16620 32-822); experiment: cell-based or functional assay
[3] = target: hTrkC in the SHC1 recruitment assay (U2OS, Discoverx Pathhunter) (human, UniProt Q16288 32-839); experiment: cell-based or functional assay
[4] = target: T1, rhTrkB-ECD (R&D #397-TR/CF) (human, UniProt Q16620 32-430); experiment: competition ELISA on coated rhTrkB-ECD; competitor biotinylated chimeric TOA-1 at 25 ng/ml
T1 construct: extracellular domain; Bought protein; also called human TrkB-extracellular domain protein; human TrkB ectodomain protein
T1 sequence (Q16620 32-430): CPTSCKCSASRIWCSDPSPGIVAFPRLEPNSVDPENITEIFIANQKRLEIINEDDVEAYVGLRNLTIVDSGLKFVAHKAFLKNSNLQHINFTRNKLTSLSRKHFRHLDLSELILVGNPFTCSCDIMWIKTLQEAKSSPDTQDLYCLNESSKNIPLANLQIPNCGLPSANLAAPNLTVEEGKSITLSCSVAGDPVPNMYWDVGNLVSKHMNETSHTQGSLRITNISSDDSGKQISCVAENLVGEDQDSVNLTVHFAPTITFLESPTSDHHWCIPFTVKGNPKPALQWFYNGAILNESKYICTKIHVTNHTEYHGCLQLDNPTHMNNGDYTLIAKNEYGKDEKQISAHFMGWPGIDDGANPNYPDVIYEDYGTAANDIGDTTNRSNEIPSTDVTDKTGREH

[5] = target: T1, rhTrkB-ECD (R&D #397-TR/CF); experiment: competition ELISA: plate coated with rhTrkB-ECD; biotinylated chimeric TOA-1 at 25 ng/ml mixed with the unlabeled antibody; streptavidin-HRP
[6] = target: T2, mouse TrkB (nm_001025074) on HEK293 cells (mouse, UniProt P15209 32-821); experiment: cell-based ELISA on transfected 293 cells
T2 construct: whole, on cells; also called rmuTrkB-CRE
T2 sequence (P15209 32-821): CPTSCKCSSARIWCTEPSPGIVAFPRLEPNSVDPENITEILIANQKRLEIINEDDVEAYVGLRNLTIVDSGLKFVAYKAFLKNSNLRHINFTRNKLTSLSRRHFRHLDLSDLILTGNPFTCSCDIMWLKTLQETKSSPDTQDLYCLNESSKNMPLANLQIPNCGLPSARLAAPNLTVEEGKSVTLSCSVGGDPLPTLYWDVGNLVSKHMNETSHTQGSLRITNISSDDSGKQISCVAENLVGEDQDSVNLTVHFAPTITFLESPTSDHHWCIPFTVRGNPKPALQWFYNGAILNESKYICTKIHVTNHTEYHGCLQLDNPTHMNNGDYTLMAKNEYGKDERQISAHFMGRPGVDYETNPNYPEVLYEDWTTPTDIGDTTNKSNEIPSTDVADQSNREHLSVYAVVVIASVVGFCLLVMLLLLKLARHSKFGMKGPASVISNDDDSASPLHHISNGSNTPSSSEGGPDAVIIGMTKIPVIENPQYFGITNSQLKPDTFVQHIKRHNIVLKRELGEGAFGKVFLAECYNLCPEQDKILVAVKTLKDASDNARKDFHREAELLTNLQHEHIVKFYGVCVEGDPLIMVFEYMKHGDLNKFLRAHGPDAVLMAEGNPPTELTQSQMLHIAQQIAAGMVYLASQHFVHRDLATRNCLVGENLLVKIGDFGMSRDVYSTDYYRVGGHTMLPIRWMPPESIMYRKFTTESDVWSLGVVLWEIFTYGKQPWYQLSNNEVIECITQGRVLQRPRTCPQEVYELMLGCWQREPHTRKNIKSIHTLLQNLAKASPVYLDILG

[7] = target: T3, TrkB, Cat (Felis domesticus) on 293 cells (cat (Felis domesticus)); experiment: cell-based ELISA on transfected 293 cells
T3 construct: Whole entry with signal peptide; also called cat TrkB
T3 sequence (chain, as listed by the source limits assumed): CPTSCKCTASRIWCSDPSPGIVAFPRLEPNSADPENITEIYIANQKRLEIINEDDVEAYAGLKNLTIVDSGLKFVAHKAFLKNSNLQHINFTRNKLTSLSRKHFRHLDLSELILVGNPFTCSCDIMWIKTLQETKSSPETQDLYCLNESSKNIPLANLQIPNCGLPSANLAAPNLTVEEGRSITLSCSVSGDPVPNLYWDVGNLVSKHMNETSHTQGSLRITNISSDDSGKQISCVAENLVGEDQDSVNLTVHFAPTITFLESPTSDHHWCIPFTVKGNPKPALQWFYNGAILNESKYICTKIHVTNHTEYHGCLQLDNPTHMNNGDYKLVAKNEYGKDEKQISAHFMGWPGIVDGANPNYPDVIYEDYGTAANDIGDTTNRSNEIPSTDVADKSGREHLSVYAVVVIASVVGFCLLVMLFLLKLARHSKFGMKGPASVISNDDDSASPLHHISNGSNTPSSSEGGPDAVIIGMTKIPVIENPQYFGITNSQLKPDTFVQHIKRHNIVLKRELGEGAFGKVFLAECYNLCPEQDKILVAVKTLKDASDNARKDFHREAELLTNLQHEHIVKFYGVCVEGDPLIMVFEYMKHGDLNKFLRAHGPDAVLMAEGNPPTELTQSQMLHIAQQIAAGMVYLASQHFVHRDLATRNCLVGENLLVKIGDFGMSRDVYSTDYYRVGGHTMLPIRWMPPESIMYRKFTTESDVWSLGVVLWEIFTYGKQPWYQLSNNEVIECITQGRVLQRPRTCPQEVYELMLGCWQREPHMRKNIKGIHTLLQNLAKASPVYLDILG

[8] = target: T1, rhTrkB-ECD (R&D #397-TR/CF); experiment: SPR (Biacore), TrkB ectodomain immobilised on CM5, antibody injected
[9] = target: T4, Mouse TrkB ectodomain protein (R&D #1494-TB/CF) (mouse, UniProt P15209 32-429); experiment: as above
T4 construct: extracellular domain; Bought protein; also called mouse TrkB-extracellular domain protein
T4 sequence (P15209 32-429): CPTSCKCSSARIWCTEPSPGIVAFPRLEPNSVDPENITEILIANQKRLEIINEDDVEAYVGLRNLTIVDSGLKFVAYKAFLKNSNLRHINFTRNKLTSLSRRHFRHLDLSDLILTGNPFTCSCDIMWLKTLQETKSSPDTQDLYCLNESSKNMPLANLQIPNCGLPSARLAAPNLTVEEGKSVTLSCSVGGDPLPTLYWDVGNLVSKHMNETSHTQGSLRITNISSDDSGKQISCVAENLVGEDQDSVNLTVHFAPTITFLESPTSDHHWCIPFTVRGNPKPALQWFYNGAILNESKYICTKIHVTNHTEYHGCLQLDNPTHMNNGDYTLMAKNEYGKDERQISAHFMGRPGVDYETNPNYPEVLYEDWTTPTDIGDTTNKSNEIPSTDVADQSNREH

[10] = target: Human TrkA, NP_002520, cell-surface expressed on transfected 293 cells (human, UniProt P04629 33-796); experiment: cell-based ELISA on transfected 293 cells, HRP-conjugated secondary antibody, TMB, OD450
Chain of Human TrkA, NP_002520, cell-surface expressed on transfected 293 cells (P04629 33-796 limits assumed): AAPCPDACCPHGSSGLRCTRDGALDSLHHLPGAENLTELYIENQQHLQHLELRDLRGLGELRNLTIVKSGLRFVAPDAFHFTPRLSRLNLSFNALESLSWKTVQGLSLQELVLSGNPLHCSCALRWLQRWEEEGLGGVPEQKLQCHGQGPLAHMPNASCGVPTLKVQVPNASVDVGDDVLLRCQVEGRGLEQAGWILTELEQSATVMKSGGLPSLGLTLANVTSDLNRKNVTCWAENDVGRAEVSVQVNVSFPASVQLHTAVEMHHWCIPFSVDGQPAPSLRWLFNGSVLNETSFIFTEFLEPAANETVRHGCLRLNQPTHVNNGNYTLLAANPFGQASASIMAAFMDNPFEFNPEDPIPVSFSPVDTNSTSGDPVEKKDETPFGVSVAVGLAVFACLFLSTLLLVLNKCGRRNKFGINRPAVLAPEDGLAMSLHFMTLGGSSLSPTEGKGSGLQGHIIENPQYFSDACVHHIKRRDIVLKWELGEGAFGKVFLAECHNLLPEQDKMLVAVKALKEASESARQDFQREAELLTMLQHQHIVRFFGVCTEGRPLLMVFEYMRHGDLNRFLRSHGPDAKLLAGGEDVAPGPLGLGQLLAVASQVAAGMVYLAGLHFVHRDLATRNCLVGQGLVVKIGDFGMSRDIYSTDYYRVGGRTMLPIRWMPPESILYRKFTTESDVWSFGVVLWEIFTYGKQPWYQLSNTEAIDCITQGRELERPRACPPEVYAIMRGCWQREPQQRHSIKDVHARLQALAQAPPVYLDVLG

[11] = target: T5, Chimeric TrkB (d5TrkA) (human, UniProt Q16620 32-822); experiment: as above
T5 construct: TrkB residues 284-377 replaced by TrkA residues 280-377

[12] = target: T6, Chimeric TrkA (d4TrkB) (human); experiment: as above
T6 construct: TrkA residues 187-281 replaced by TrkB residues 190-282

[13] = target: T7, recombinant human TrkA-Fc (rhTrkA-ECD, R&D system, 175-TK) (human, UniProt P04629 33-423); experiment: direct binding ELISA: plate coated with rhTrkA-ECD (Fc chimera) at 5 ug/ml, biotinylated antibody, streptavidin-HRP
T7 construct: extracellular domain; Bought protein; not shown: Fc part, not described
T7 sequence (P04629 33-423): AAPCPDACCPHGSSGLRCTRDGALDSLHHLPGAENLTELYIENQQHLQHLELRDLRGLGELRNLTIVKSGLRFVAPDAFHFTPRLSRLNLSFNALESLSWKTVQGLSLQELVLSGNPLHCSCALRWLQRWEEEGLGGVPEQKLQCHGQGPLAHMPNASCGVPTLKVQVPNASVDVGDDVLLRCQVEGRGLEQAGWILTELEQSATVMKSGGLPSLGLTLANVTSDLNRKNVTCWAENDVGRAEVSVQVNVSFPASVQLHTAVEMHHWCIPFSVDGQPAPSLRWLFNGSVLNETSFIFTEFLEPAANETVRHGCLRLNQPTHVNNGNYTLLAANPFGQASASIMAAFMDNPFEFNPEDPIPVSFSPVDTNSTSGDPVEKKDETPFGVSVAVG

[14] = target: T8, recombinant human TrkC-Fc (rhTrkC-ECD, R&D system, 373-TC/TF) (human, UniProt Q16288 32-429); experiment: direct binding ELISA: plate coated with rhTrkC-ECD (Fc chimera) at 5 ug/ml, biotinylated antibody, streptavidin-HRP
T8 construct: extracellular domain; Bought protein; not shown: Fc part, not described

Chain of human TrkB (open reading frame from nm_006180) on HEK293 cells (Q16620 32-822): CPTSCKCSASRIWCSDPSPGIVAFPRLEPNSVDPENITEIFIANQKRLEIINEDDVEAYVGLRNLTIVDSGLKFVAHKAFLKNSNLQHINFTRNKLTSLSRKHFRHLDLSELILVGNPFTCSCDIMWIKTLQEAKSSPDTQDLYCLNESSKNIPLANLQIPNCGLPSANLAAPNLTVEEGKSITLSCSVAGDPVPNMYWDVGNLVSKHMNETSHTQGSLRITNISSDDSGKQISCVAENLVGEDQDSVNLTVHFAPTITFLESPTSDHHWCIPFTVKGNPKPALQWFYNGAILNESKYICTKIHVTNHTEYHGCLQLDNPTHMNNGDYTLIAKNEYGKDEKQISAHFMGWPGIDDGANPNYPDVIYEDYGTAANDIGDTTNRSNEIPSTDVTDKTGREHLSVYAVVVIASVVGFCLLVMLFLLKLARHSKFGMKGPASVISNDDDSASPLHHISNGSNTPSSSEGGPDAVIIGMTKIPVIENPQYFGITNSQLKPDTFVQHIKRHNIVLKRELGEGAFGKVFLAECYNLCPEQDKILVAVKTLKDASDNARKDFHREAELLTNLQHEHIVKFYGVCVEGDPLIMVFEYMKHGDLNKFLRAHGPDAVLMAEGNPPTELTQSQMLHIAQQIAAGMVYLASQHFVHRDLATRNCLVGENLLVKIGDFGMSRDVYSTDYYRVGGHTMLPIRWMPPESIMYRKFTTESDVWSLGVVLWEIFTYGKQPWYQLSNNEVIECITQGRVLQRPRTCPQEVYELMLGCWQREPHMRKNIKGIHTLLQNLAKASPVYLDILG
Chain of hTrkB-a isoform fused to a small peptide epitope, in U2OS cells (Discoverx Pathhunter) (Q16620 32-430): as the sequence (Q16620 32-430) above

B1: BDNF (R&D systems, cat #248-BD) (ligand, human, UniProt P23560 129-247, looked up)
chain: HSDPARRGELSVCDSISEWVTAADKKTAVDMSGGTVTVLEKVPVSKGQLKQYFYETKCNPMGYTKEGCRGIDKRHWNSQCRTTQSYVRALTMDSKKRIGWRFIRIDTSCVCTLTIKRGR
- Cre-luciferase reporter, EC50 (FIG. 38) [1]: 5.2 nM
- EC50, SHC1 recruitment assay [2]: 1.02 nM
- EC50, SHC1 recruitment assay [3]: 5.45 nM

B2: TOA-1 variant VH human v1.1 / VL human v1.0 (antibody, V domains shown)
VH: EVQLVESGGGLVQPGGSLRLSCATSGYSFTAYFMNWVRQAPGKGLEWVARINPNNGDTFYTQKFKGRFTISVDNAKNSAYLQMNSLRAEDTAVYYCARRDYFGAMDYWGQGTLVTVSS
VL: DIQMTQSPSSLSASVGDRVTITCRASQTISNNLHWYQQKPGKAPKLLIYSASLAISGVPSRFSGSGSGTDFTLTISSLQPEDFATYYCQQSNSWPNTFGGGTKVEIK
notes: Human IgG; constant regions not restated; also called hu v1.1 / hu v1.0
- IC50 [4]: 13.6 nM

B3: TOA-1 variant VH human v1.1 / VL human v1.1 (antibody, V domains shown)
VH: EVQLVESGGGLVQPGGSLRLSCATSGYSFTAYFMNWVRQAPGKGLEWVARINPNNGDTFYTQKFKGRFTISVDNAKNSAYLQMNSLRAEDTAVYYCARRDYFGAMDYWGQGTLVTVSS
VL: DIQMTQSPSSLSASVGDRVTITCRASQTISNNLHWYQQKPGESPKLLIKSASLAISGVPSRFSGSGSGTDFTLTISSLQPEDFATYYCQQSNSWPNTFGGGTKVEIK
notes: Human IgG; constant regions not restated; also called hu v1.1 / hu v1.1
- IC50 [4]: 10.1 nM

B4: huTOA-1 VH v1.0 / VL v1.2 (antibody, V domains shown)
VH: EVQLVESGGGLVQPGGSLRLSCAASGYSFTAYFMNWVRQAPGKGLEWVARINPNNGDTFYTQKFKGRFTISRDNAKNSLYLQMNSLRAEDTAVYYCARRDYFGAMDYWGQGTLVTVSS
VL: DIQMTQSPSSLSASVGDRVTITCRASQTISNNLHWYQQKPGEAPKLLIYSASLAISGVPSRFSGSGSGTDFTLTISSLQPEDFATYYCQQSNSWPNTFGGGTKVEIK
notes: Human IgG; constant regions not restated; also called hu v1.0 / hu v1.2
- IC50 (read off the curve) [5]: ~9 nM

B5: huTOA-1 VH v1.0 / VL v1.3 (antibody, V domains shown)
VH: EVQLVESGGGLVQPGGSLRLSCAASGYSFTAYFMNWVRQAPGKGLEWVARINPNNGDTFYTQKFKGRFTISRDNAKNSLYLQMNSLRAEDTAVYYCARRDYFGAMDYWGQGTLVTVSS
VL: DIQMTQSPSSLSASVGDRVTITCRASQTISNNLHWYQQKPGKSPKLLIYSASLAISGVPSRFSGSGSGTDFTLTISSLQPEDFATYYCQQSNSWPNTFGGGTKVEIK
notes: Human IgG; constant regions not restated; also called hu v1.0 / hu v1.3
- IC50 (read off the curve) [5]: ~9 nM

B6: mouse TOA-1 antibody (antibody, mouse IgG1, V domains shown)
VH: EVQLQQSGPELVKPGASMKISCKTSGYSFTAYFMNWVKQSHGKSLEWIGRINPNNGDTFYTQKFKGKATLTVDKSSNTAHMELLSLTSEDSAIYYCGRRDYFGAMDYWGQGTSVTVSS
VL: AIVLIQSPATLSVTPGDSVSLSCRASQTISNNLHWYQQKSHESPRLLIKSASLAISGIPSRFSGSGSGTDFTLSISSVETEDFGMYFCQQSNSWPNTFGGGTKLEIK
notes: Hybridoma antibody, cloned with mouse IgG1 and mouse Kappa primers; also called muTOA-1; mTOA-1
- EC50 [6]: 0.4 nM
- EC50 [7]: 0.23 nM
- Kd [8]: 14.7 nM
- Kd [9]: 16.3 nM
- binding result [10]: no binding (tested: 10.00 ug/ml)
- binding result [11]: no binding (tested: 1.0000 ug/ml)
- binding result [12]: no binding (tested: 10.00 ug/ml)
- binding result [13]: no binding (tested: about 6.7 nM)
- binding result [14]: no binding (tested: about 6.7 nM)

B7: chimeric TOA-1 antibody (antibody, V domains shown)
VH: EVQLQQSGPELVKPGASMKISCKTSGYSFTAYFMNWVKQSHGKSLEWIGRINPNNGDTFYTQKFKGKATLTVDKSSNTAHMELLSLTSEDSAIYYCGRRDYFGAMDYWGQGTSVTVSS
VL: AIVLIQSPATLSVTPGDSVSLSCRASQTISNNLHWYQQKSHESPRLLIKSASLAISGIPSRFSGSGSGTDFTLSISSVETEDFGMYFCQQSNSWPNTFGGGTKLEIK
notes: also called chiTOA-1; VH mouse / VL mouse
- Kd [8]: 12.1 nM
- Kd [9]: 17 nM
- IC50 [4]: 3.6 nM

B8: TOA-1 variant VH mouse / VL human v1.0 (antibody, V domains shown)
VH: EVQLQQSGPELVKPGASMKISCKTSGYSFTAYFMNWVKQSHGKSLEWIGRINPNNGDTFYTQKFKGKATLTVDKSSNTAHMELLSLTSEDSAIYYCGRRDYFGAMDYWGQGTSVTVSS
VL: DIQMTQSPSSLSASVGDRVTITCRASQTISNNLHWYQQKPGKAPKLLIYSASLAISGVPSRFSGSGSGTDFTLTISSLQPEDFATYYCQQSNSWPNTFGGGTKVEIK
notes: Human IgG from COS-1 conditioned medium; constant regions not restated; also called mu / hu v1.0
- IC50 [4]: 16.3 nM

B9: TOA-1 variant VH mouse / VL human v1.1 (antibody, V domains shown)
VH: EVQLQQSGPELVKPGASMKISCKTSGYSFTAYFMNWVKQSHGKSLEWIGRINPNNGDTFYTQKFKGKATLTVDKSSNTAHMELLSLTSEDSAIYYCGRRDYFGAMDYWGQGTSVTVSS
VL: DIQMTQSPSSLSASVGDRVTITCRASQTISNNLHWYQQKPGESPKLLIKSASLAISGVPSRFSGSGSGTDFTLTISSLQPEDFATYYCQQSNSWPNTFGGGTKVEIK
notes: Human IgG from COS-1 conditioned medium; constant regions not restated; also called mu / hu v1.1
- IC50 [4]: 13.6 nM

B10: huTOA-1 v1.0/2.0 (antibody, V domains shown)
VH: EVQLVESGGGLVQPGGSLRLSCAASGYSFTAYFMNWVRQAPGKGLEWVARINPNNGDTFYTQKFKGRFTISRDNAKNSLYLQMNSLRAEDTAVYYCARRDYFGAMDYWGQGTLVTVSS
VL: EIVMTQSPATLSVSPGERATLSCRASQTISNNLHWYQQKPGQAPRLLIYSASLAISGIPARFSGSGSGTEFTLTISSLQSEDFAVYYCQQSNSWPNTFGGGTKVEIK
notes: Human IgG; constant regions not restated; also called VH human v1.0 / VL human v2.0
- Kd [8]: 16.5 nM
- Kd [9]: 20.9 nM
- IC50 [4]: 5.9 nM

B11: TOA-1 variant VH human v1.1 / VL human v2.0 (antibody, V domains shown)
VH: EVQLVESGGGLVQPGGSLRLSCATSGYSFTAYFMNWVRQAPGKGLEWVARINPNNGDTFYTQKFKGRFTISVDNAKNSAYLQMNSLRAEDTAVYYCARRDYFGAMDYWGQGTLVTVSS
VL: EIVMTQSPATLSVSPGERATLSCRASQTISNNLHWYQQKPGQAPRLLIYSASLAISGIPARFSGSGSGTEFTLTISSLQSEDFAVYYCQQSNSWPNTFGGGTKVEIK
notes: Human IgG; constant regions not restated; also called hu v1.1 / hu v2.0
- IC50 [4]: 10.7 nM

B12: TOA-1 variant VH human v2.0 / VL human v1.0 (antibody, V domains shown)
VH: EVQLVQSGAEVKKPGATVKISCKVSGYSFTAYFMNWVQQAPGKGLEWMGRINPNNGDTFYTQKFKGRVTITADTSTDTAYMELSSLRSEDTAVYYCATRDYFGAMDYWGQGTLVTVSS
VL: DIQMTQSPSSLSASVGDRVTITCRASQTISNNLHWYQQKPGKAPKLLIYSASLAISGVPSRFSGSGSGTDFTLTISSLQPEDFATYYCQQSNSWPNTFGGGTKVEIK
notes: Human IgG; constant regions not restated; also called hu v2.0 / hu v1.0
- IC50 [4]: ~126 nM

B13: TOA-1 variant VH human v2.0 / VL human v1.1 (antibody, V domains shown)
VH: EVQLVQSGAEVKKPGATVKISCKVSGYSFTAYFMNWVQQAPGKGLEWMGRINPNNGDTFYTQKFKGRVTITADTSTDTAYMELSSLRSEDTAVYYCATRDYFGAMDYWGQGTLVTVSS
VL: DIQMTQSPSSLSASVGDRVTITCRASQTISNNLHWYQQKPGESPKLLIKSASLAISGVPSRFSGSGSGTDFTLTISSLQPEDFATYYCQQSNSWPNTFGGGTKVEIK
notes: Human IgG; constant regions not restated; also called hu v2.0 / hu v1.1
- IC50 [4]: ~87.6 nM

B14: TOA-1 variant VH human v2.0 / VL human v2.0 (antibody, V domains shown)
VH: EVQLVQSGAEVKKPGATVKISCKVSGYSFTAYFMNWVQQAPGKGLEWMGRINPNNGDTFYTQKFKGRVTITADTSTDTAYMELSSLRSEDTAVYYCATRDYFGAMDYWGQGTLVTVSS
VL: EIVMTQSPATLSVSPGERATLSCRASQTISNNLHWYQQKPGQAPRLLIYSASLAISGIPARFSGSGSGTEFTLTISSLQSEDFAVYYCQQSNSWPNTFGGGTKVEIK
notes: Human IgG; constant regions not restated; also called hu v2.0 / hu v2.0
- IC50 [4]: ~37.8 nM
